Measured values reported in patent US20240041978A1, “LA PROTEIN AS A NOVEL REGULATOR OF OSTEOCLASTOGENESIS” (The U.S.A., as Represented by the Secretary, Department of …, priority 2021, published 2024).

Tests used:
Assay type in all cases: cell-based
[1] = tested on: human monocyte-derived osteoclasts; test: Osteoclast fusion assay (number of fusion events, fluorescence microscopy); conditions: for formation of multinucleated syncytia (osteoclast fusion): recombinant protein ~40 nM added end of day 2 post-RANKL, overnight
Description: Osteoclasts: Elutriated monocytes from healthy donors were obtained. Cells were plated at 2.9×10^5 per cm^2 in 35 mm dishes with polymer coverslip bottoms (Ibidi #81156) for imaging or 35 mm or 10 cm dishes for biochemical experiments in complete media [α-MEM supplemented with 10% Fetal Bovine Serum (FBS) and penicillin-streptomycin-L-glutamine (Gibco Invitrogene #12571063; #26140079 and #10378016, respectively)]. Monocytes were differentiated to M2 macrophages in the presence of 100 ng/ml M-CSF for 6 days and then differentiated with 100 ng/ml M-CSF and 100 ng/ml RANKL for 3 days unless indicated otherwise. RAW 264.7 cells (ATCC, Manassas, VA, #TIB-71) were maintained in DMEM supplemented with 10% FBS to a maximum of 8 passages. RAW 264.7 cells were differentiated to osteoclasts in the presence of 100 ng/ml murine RANKL for 5 days. To separate unfused mononucleated and fused, multinucleated RAW 264.7 cells into separate fractions, advantage was taken of the much stronger adherence of multinucleated cells to culture dish plastic. After washing in PBS, mixed RAW cultures (following RANKL differentiation) were left in Ca^2+ and Mg^2+ free PBS for 10 minutes at room temperature. Culture dishes were then tapped on the lab bench and a large portion of unfused, mononucleated RAW cells were released, and these released cells were collected via centrifugation. This process was repeated 2-4 times until dishes were left with a population of primarily fused, multinucleated syncytia. Mononucleated and multinucleated cell fractions were then processed for biochemical or imaging experiments as described below.
Constructs & Recombinant proteins & Transfection: Recombinant La 1-408, 1-375, 1-375 Q20A_Y24A_D33I, 1-187 and 188-375 were amplified with primers designed with overlapping sequences and inserted between NdeI/HindIII in the V78 pET28A E. coli expression vector, adding to each a N-terminal 6×his affinity tag. La 1-408 was expressed as a recombinant protein in E. coli and purified using IMAC columns by SD Biosciences (San Diego, CA). The remaining constructs were transformed into BL2 (DE3) chemically competent E. coli (Thermo Fisher Scientific) and protein expression was induced with IPTG. Cells were lysed with Bugbuster (Sigma), and 6×his-La proteins were affinity purified using HisPur Cobalt Spin columns (Thermo Fisher Scientific), each according to the manufacturer's instructions. Endotoxin contaminates were depleted from affinity purified 6×his-La proteins using Pierce high-capacity endotoxin removal columns (Thermo Fisher Scientific), according to the manufacturer's instructions. Proteins were then sterile filtered, aliquoted and kept at −80 C.
Plasmids were introduced into primary osteoclasts at day 2 of RANKL stimulation via jetPRIME (Polyplus Transfection). FLAG-La 1-408, FLAG-La 1-375 and FLAG-La 1-375 Q20A_Y24A_D33I plasmids were a gift of the Maraia Lab (NICHD). Briefly, SSB (UniProt P05455) was inserted between HindIII and BamHI the pFLAG-CMV2 vector (Sigma). “Uncleavable” La was produced by taking the FLAG-La 1-408 plasmid and making two point mutations at amino acids D371A and D374A, abrogating the caspase cleavage sites at the C-terminal region of the protein (Emory Integrated Genomics Core). siRNA were introduced into primary osteoclasts after 1 day of RANKL stimulation via Lipofectamine RNAiMAX (Thermo Fisher Scientific). Non-targeted (Cat #4390843) and SSB-targeted (Cat #4392420_ID:s13469) siRNA were introduced at a concentration of 5 ng/ml (Silencer Select, Ambion).
Fusion Assays: Osteoclast fusion in the culture systems was evaluated by fluorescence microscopy (Verma et al., J Biol Chem 293, 254-270, doi:10.1074/jbc.M117.809681 (2018)). Briefly, cells were fixed with 4% paraformaldehyde at timepoints of interest, permeabilized with 0.1% TRITON™ X-100 and blocked with 5% FBS. Cells were then stained with phallodin-ALEXAFLURO®488 and Hoechst to label cells' actin cytoskeleton and nuclei, respectively. […]

[2] = tested on: RAW 264.7 derived, murine osteoclasts; test: Osteoclast fusion assay in RAW 264.7 derived osteoclasts; conditions: overexpression from expression plasmid vs empty plasmid
Description: Osteoclasts: Elutriated monocytes from healthy donors were obtained. Cells were plated at 2.9×10^5 per cm^2 in 35 mm dishes with polymer coverslip bottoms (Ibidi #81156) for imaging or 35 mm or 10 cm dishes for biochemical experiments in complete media [α-MEM supplemented with 10% Fetal Bovine Serum (FBS) and penicillin-streptomycin-L-glutamine (Gibco Invitrogene #12571063; #26140079 and #10378016, respectively)]. Monocytes were differentiated to M2 macrophages in the presence of 100 ng/ml M-CSF for 6 days and then differentiated with 100 ng/ml M-CSF and 100 ng/ml RANKL for 3 days unless indicated otherwise. RAW 264.7 cells (ATCC, Manassas, VA, #TIB-71) were maintained in DMEM supplemented with 10% FBS to a maximum of 8 passages. […]
Fusion Assays: Osteoclast fusion in the culture systems was evaluated by fluorescence microscopy (Verma et al., J Biol Chem 293, 254-270, doi:10.1074/jbc.M117.809681 (2018)). […] Osteoclast fusion efficiency was evaluated as the number of fusion events between cells in these images, as described previously. Since regardless of the sequence of fusion events, the number of cell-to-cell fusion events required to generate syncytium with N nuclei is always equal to N−1, the fusion number index was calculated as Σ(Ni−1)=Ntotal−Nsyn, where Ni=the number of nuclei in individual syncytia and Nsyn=the total number of syncytia. […]

[3] = tested on: human, monocyte-derived osteoclasts; test: Bone resorption assay (fluoresceinamine-labeled chondroitin sulfate on calcium phosphate-coated plates)
Description: There is a relationship between osteoclast fusion and bone resorption (Makris and Saffar, Arch Oral Biol 27, 965-969, doi:10.1016/0003-9969(82)90104-2 (1982); Piper et al., Anat Embryol (Berl) 186, 291-299, doi:10.1007/BF00185977 (1992); Moller et al., Int J Mol Sci 21, doi:10.3390/ijms21176368 (2020)). It was hypothesized that by regulating osteoclast size, La also regulates bone resorption. This hypothesis was evaluated by differentiating osteoclasts on fluoresceinated calcium phosphate, a biomimetic of bone, and assessed osteoclast-dependent bone resorption by the release of fluorescein into the media (FIG. 5A). […] Overexpression of La 1-375 promoted bone resorption, while the uncleavable La mutant, D371,374A, had no effect (FIG. 5B).
Bone Resorption: Bone resorption was evaluated using bone resorption assay kits from Cosmo Bio USA according to the manufacturer's instructions. Briefly, fluoresceinamine-labeled chondroitin sulfate was used to label 24-well, calcium phosphate-coated plates. Human, monocyte-derived osteoclasts were differentiated as described above, using alpha MEM without phenol red. Media were collected at 4-5 days post RANKL addition, and fluorescence intensity within the media was evaluated as recommended by the manufacture.

Molecule	osteoclast fusion (fusion events in syncytia with 3+ nuclei) ([1]; overexpression from expression plasmid vs empty plasmid, human osteoclasts)	formation of multinucleated syncytia (osteoclast fusion) [1]	osteoclast fusion (fusion events in syncytia with 3+ nuclei) [2]	osteoclast bone resorption ([3]; 40 nM recombinant protein, extracellular addition, vs PBS)	bone resorption ([3]; overexpression, normalized to empty plasmid)
La 1-375: amino acids 1-375 of human La lacking NLS; recombinant protein or overexpressed from FLAG plasmid (protein, listed as Homo sapiens) MAENGDNEKMAALEAKICHQIEYYFGDFNLPRDKFLKEQIKLDEGWVPLEIMIKFNRLNRLTTDFNVIVEALSKSKAELMEISEDKTKIRRSPSKPLPEVTDEYKNDVKNRSVYIKGFPTDATLDDIKEWLEDKGQVLNIQMRRTLHKAFKGSIFVVFDSIESAKKFVETPGQKYKETDLLILFKDDYFAKKNEERKQNKVEAKLRAKQEQEAKQKLEEDAEMKSLEEKIGCLLKFSGDLDDQTCREDLHILFSNHGEIKWIDFVRGAKEGIILFKEKAKEALGKAKDANNGNLQLRNKEVTWEVLEGEVEKEALKKIIEDQQESLNKWKSKGRRFKGKGKGNKAAQPGSGKGKVQFQGKKTKFASDDEHDEHDE	greatly promoted	significantly promoted	greatly promoted	dramatically increased	promoted
La 1-375 RNAΔ: La 1-375 with three point mutations impairing La domain RNA binding (protein, UniProt P05455 1-375, looked up, variant Q20A Y24A D33I) MAENGDNEKMAALEAKICHAIEYAFGDFNLPRIKFLKEQIKLDEGWVPLEIMIKFNRLNRLTTDFNVIVEALSKSKAELMEISEDKTKIRRSPSKPLPEVTDEYKNDVKNRSVYIKGFPTDATLDDIKEWLEDKGQVLNIQMRRTLHKAFKGSIFVVFDSIESAKKFVETPGQKYKETDLLILFKDDYFAKKNEERKQNKVEAKLRAKQEQEAKQKLEEDAEMKSLEEKIGCLLKFSGDLDDQTCREDLHILFSNHGEIKWIDFVRGAKEGIILFKEKAKEALGKAKDANNGNLQLRNKEVTWEVLEGEVEKEALKKIIEDQQESLNKWKSKGRRFKGKGKGNKAAQPGSGKGKVQFQGKKTKFASDDEHDEHDE	–	significantly promoted	promoted formation of multinucleated osteoclasts as robustly as wild type La 1-375	–	–
